Results reported in US20150104466A1 (WISCONSIN ALUMNI RESEARCH FOUNDATION, published 2015).
Values joined by “and” are separate entries in the source; they are usually repeats but may differ in a detail not shown here. Equal entries are not always repeated.

Columns and labels:
β1 integrin = β1 integrin (human, UniProt P05556 21-798); experiment: cell-based or functional assay
β3 integrin = target: T1, β3 integrin (human, UniProt P05106 27-788); experiment: His-tag pull-down on nickel beads from NHDF lysate, Western blot for β3 integrin
T1 construct: also called β3 integrins
T1 sequence (P05106 27-788 limits assumed): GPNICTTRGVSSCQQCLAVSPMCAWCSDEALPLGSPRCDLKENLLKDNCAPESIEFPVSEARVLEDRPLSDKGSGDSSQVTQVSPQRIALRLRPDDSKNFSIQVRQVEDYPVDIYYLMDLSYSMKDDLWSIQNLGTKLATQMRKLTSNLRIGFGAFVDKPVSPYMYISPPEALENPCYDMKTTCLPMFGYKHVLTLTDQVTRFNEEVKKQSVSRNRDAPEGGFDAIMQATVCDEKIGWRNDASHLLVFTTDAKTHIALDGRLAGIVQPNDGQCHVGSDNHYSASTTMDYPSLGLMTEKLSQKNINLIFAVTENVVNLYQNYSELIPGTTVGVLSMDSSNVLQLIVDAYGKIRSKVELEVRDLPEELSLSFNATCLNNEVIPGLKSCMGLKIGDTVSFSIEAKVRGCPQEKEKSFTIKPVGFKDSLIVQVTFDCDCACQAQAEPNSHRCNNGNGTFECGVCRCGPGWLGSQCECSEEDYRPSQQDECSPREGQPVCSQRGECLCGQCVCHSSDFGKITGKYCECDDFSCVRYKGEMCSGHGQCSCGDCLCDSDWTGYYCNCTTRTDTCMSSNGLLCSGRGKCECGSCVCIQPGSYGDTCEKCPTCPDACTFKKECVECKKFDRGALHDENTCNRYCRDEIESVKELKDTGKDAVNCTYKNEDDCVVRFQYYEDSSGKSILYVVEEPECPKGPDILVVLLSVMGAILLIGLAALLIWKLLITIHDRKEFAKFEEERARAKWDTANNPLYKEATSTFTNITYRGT

Sequence of β1 integrin (P05556 21-798): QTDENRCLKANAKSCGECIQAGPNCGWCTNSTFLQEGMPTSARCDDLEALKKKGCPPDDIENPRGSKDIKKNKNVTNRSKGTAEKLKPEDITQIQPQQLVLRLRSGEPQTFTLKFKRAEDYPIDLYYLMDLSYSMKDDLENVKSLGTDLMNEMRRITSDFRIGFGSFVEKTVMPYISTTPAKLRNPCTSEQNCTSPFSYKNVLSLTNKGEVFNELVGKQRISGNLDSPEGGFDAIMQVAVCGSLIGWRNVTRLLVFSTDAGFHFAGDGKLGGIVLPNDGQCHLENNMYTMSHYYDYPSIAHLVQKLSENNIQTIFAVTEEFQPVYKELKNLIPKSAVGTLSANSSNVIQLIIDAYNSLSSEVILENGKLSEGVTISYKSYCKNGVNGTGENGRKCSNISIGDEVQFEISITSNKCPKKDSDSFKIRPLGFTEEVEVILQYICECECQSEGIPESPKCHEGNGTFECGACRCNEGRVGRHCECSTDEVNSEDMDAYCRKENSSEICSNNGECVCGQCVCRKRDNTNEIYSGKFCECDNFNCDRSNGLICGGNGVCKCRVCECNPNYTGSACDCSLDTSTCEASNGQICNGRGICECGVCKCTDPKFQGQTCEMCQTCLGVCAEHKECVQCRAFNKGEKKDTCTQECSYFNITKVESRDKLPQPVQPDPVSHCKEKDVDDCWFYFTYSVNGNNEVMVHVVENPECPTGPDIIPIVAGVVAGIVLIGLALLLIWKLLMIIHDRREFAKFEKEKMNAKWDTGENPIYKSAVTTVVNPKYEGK

B1: HCMV AD169 glycoprotein B disintegrin-like domain (amino acids 57-146), His-tagged, expressed in E. coli (other)
chain: VTSSEAVSHRANETIYNTTLKYGDVVGVNTTKYPYRVCSMAQGTDLIRFERNIICTSMKPINEDLDEGIMVVYKRNIVAHTFKVRVYQKV
notes: range 57-146; also called gBDLD; gBDLD fragment; not shown: N-terminal His-Tag with thrombin cleavage site from vector pET-28a
For B1, the “IC50 for HCMV neutralization (HCMV-GFP infectivity of NHDFs, flow cytometry)” value (β1 integrin) was 20.5 µg/mL and 1.96 µM and the binding result (β3 integrin) was “no binding (tested: 20 µg gBDLD in 350 µL cell lysate)”.
